Assay results taken from article PMC5156906.

Molecular target: Calcineurin A subunit alone, residues 1-348 (human) (UniProt Q08209)
Assay: ITC; NFAT peptides, PALB2 or SYDE2 titrated into calcineurin in the cell; 25 °C; 20 mM Tris pH 7.5, 100 mM NaCl, 1.0 mM CaCl2, 0.5 mM TCEP; one set of sites model with n=1; averages of >=3 experiments (SYDE2: 2)

Row | Kd | Binder
1 | 2.4 µM | DDQYLAVPQHPYQWAKPK [NFATc1 LxVP long peptide 383…400]
2 | 4.1 µM | ESPRIEITS [NFATc1 PxIxIT peptide 116…124]
